Reference: article PMC5871717, “Transposase-DNA Complex Structures Reveal Mechanisms for Conjugative Transposition of Antibiotic Resistance” (Cell, 2018)

Assays:
[1] = target: T1, Int82N (HJ-bound tetramer) (Enterococcus faecalis, UniProt Q7BP35 82-397); assay: EMSA; 4:1 protein:HJ; […] (50 mM HEPES pH 7.5, 250 mM NaCl, 5 mM DTT, 10% glycerol), […]; details: protein: recombinant; tags: 6xHis-SUMO removed by SenP2; chain copies: 4; four-way junction of 4 strands
T1 sequence: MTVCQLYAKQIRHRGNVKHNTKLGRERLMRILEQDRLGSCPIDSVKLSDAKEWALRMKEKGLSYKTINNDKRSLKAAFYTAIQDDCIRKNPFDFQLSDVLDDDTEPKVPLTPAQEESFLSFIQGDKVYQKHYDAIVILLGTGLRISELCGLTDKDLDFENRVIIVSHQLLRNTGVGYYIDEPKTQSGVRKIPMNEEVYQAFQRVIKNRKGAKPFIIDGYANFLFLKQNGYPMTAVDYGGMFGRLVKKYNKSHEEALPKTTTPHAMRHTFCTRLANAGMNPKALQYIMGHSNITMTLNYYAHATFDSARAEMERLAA

Int82N(Y379F) = target: T2, Int82N(Y379F) (Enterococcus faecalis, UniProt Q7BP35 82-397, Y379F); assay: X-ray crystallography; […] (50 mM HEPES pH 7.5, 250 mM NaCl, 5 mM DTT, 10% glycerol), […]; details: protein: recombinant; tags: 6xHis-SUMO removed by SenP2; 5' overhang 6 nt
T2 sequence: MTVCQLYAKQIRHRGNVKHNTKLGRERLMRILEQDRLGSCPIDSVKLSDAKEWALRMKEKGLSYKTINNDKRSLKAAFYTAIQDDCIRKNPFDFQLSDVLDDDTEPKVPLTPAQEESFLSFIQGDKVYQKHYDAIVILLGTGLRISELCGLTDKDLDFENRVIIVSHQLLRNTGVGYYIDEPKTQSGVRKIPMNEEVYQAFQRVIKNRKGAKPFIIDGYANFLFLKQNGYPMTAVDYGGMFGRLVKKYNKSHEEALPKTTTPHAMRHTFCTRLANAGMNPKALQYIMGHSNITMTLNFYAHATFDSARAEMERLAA

[2] = target: the molecule itself; assay: crystal structure; Int^82N (R225K or wild type) with 44 bp CI5 dsDNA at 2:1 molar ratio in Buffer C; vapor diffusion at 20°C; 2.8 Å
[3] = target: the molecule itself; assay: SEC; analytical size exclusion chromatography on Superdex 200 10/300, proteins without DNA
390C = 390C (Enterococcus faecalis, UniProt Q7BP35 82-390); assay: EMSA; monomeric and higher oligomers; […] (50 mM HEPES pH 7.5, 250 mM NaCl, 5 mM DTT, 10% glycerol), […]; details: protein: recombinant; tags: 6xHis-SUMO removed by SenP2; label: 5'-32P in EMSA; none in crystals; 44 bp; terminal T/T mismatch as printed
381C = 381C (Enterococcus faecalis, UniProt Q7BP35 82-381); assay: as above; details: protein: recombinant; tags: 6xHis-SUMO removed by SenP2; label: 5'-32P in EMSA; none in crystals; 44 bp; terminal T/T mismatch as printed
Int82N [4] = target: T3, Int82N (Enterococcus faecalis, UniProt Q7BP35 82-397); assay: X-ray crystallography; wild-type catalytic residues; […] (50 mM HEPES pH 7.5, 250 mM NaCl, 5 mM DTT, 10% glycerol), […]; details: protein: recombinant; tags: 6xHis-SUMO removed by SenP2; extra N-terminal S81; chain copies: 2; label: 5'-32P in EMSA; none in crystals; 44 bp; terminal T/T mismatch as printed
T3 sequence: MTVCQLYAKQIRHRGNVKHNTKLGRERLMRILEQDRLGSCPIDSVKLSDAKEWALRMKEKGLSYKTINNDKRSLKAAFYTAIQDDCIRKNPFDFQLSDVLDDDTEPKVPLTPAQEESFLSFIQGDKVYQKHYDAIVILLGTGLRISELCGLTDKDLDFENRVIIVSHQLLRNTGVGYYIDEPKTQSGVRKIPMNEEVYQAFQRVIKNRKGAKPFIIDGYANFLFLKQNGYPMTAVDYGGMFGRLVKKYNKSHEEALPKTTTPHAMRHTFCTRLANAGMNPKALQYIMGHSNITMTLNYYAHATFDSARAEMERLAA

Int82N(R225K) = target: T4, Int82N(R225K) (Enterococcus faecalis, UniProt Q7BP35 82-397, R225K); assay: X-ray crystallography; 2 protein:1 DNA; […] (50 mM HEPES pH 7.5, 250 mM NaCl, 5 mM DTT, 10% glycerol), […]; details: protein: recombinant, tags: 6xHis-SUMO removed by SenP2, extra N-terminal S81, chain copies: 2, terminal T/T mismatch as printed
T4 sequence: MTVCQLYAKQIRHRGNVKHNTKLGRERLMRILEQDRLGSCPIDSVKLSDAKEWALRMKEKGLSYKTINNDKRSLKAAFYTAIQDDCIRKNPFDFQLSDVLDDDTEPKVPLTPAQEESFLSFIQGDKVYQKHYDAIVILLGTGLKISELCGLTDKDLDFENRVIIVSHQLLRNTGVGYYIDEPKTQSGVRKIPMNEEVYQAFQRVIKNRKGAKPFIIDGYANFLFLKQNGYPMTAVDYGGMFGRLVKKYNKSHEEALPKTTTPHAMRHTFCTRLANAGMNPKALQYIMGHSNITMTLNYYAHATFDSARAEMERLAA

Int82N [5] = target: T3, Int82N; assay: 2AP fluorescence; base-flipping readout; […] (50 mM HEPES pH 7.5, 250 mM NaCl, 5 mM DTT, 10% glycerol), […]; details: protein: recombinant; tags: 6xHis-SUMO removed by SenP2; extra N-terminal S81; chain copies: 2; label: 2AP; 44 nt strands; 2AP opposite C at one flipped base; terminal T/T mismatch
Int82N [6] = target: T3, Int82N; assay: EMSA; 2:1 complex; similar affinity to CI5; […] (50 mM HEPES pH 7.5, 250 mM NaCl, 5 mM DTT, 10% glycerol), […]; details: protein: recombinant; tags: 6xHis-SUMO removed by SenP2; extra N-terminal S81; chain copies: 2; 45 bp; terminal T/T mismatch as printed

B1: HJ (EMSA) (structured_DNA)
DNA 1: AGTGAACAGCCCACAAAATTTTGAAAATAAAATTTTAGGTTATCGCTGGCTAGTCCATGC
DNA 2: GCATGGACTAGCCAGCGATAACCTAAAATTTTATTAATAAAATTATATGGGATTT
DNA 3: CCAAATTTTTTACCGGGTTTTGAATTCAAAATTTTGTGGGCTGTTCACT
DNA 4: AAATCCCATATAATTTTATTTTCAAAACCCGGTAAAAAATTTGG
B1: binds [1].

B2: IRR half-site (dsDNA)
DNA 1: ATTTTCAAAATTATGGGATTTTAG
DNA 2: CTAAAATCCCATATAATTTT
B2: binds (Int82N(Y379F)).

B3: Int^82N(R225K), catalytic mutant of Tn1549 Int aa 82–397 (domain or fragment, Enterococcus faecalis)
chain: SMTVCQLYAKQIRHRGNVKHNTKLGRERLMRILEQDRLGSCPIDSVKLSDAKEWALRMKEKGLSYKTINNDKRSLKAAFYTAIQDDCIRKNPFDFQLSDVLDDDTEPKVPLTPAQEESFLSFIQGDKVYQKHYDAIVILLGTGLKISELCGLTDKDLDFENRVIIVSHQLLRNTGVGYYIDEPKTQSGVRKIPMNEEVYQAFQRVIKNRKGAKPFIIDGYANFLFLKQNGYPMTAVDYGGMFGRLVKKYNKSHEEALPKTTTPHAMRHTFCTRLANAGMNPKALQYIMGHSNITMTLNYYAHATFDSARAEMERLAA
notes: additional residue S81 left after SenP2 cleavage of the purification tags; Tn1549 integrase (Int), Enterococcus faecalis, GenBank AAF72368.1, aa 82-397, with R225K; Crystallised with CI5, CI6a and CI6b DNA; also called R225K Int^82N; not shown: His6, N-terminal, cleaved; SUMO, N-terminal, cleaved
B3: binds [2].

B4: Tn1549 Int variant lacking the AB domain (aa 82–397; Int^82N), wild type (domain or fragment, Enterococcus faecalis)
chain: SMTVCQLYAKQIRHRGNVKHNTKLGRERLMRILEQDRLGSCPIDSVKLSDAKEWALRMKEKGLSYKTINNDKRSLKAAFYTAIQDDCIRKNPFDFQLSDVLDDDTEPKVPLTPAQEESFLSFIQGDKVYQKHYDAIVILLGTGLRISELCGLTDKDLDFENRVIIVSHQLLRNTGVGYYIDEPKTQSGVRKIPMNEEVYQAFQRVIKNRKGAKPFIIDGYANFLFLKQNGYPMTAVDYGGMFGRLVKKYNKSHEEALPKTTTPHAMRHTFCTRLANAGMNPKALQYIMGHSNITMTLNYYAHATFDSARAEMERLAA
notes: additional residue S81 left after SenP2 cleavage of the purification tags; Tn1549 integrase (Int), Enterococcus faecalis, GenBank AAF72368.1, aa 82-397 (CB and CAT domains, no AB domain); full length is aa 1-397; Codon-optimised synthetic gene in pETM28 (BamHI/XhoI); also called Int^82N(wt); Tn1549 integrase; not shown: His6, N-terminal, cleaved; SUMO, N-terminal, cleaved
In the case of B4, the “stoichiometry N” value [3] is reported as 2.

B5: CI5 (dsDNA)
DNA 1: TGCGATAACCTAAAATTTTATAGCAAAATTATATGGGATTTTAG
DNA 2: CTAAAATCCCATATAATTTTGCTATAAAATTTTAGGTTATCGCT
B5: binds (390C); binds (381C); binds (Int82N [4]). B5: binds (Int82N(R225K); label: 5'-32P in EMSA, none in crystals, 44 bp).

B6: CI5-F (dsDNA)
DNA 1: TGCGATAACCTAAAATTTTTTAGAAAAATTATATGGGATTTTAG
DNA 2: CTAAAATCCCATATAATTTTCCTAAAAAATTTTAGGTTATCGCT
modifications: 2-aminopurine (written A) at position 24 of top and 25 of bottom strand
For B6, the binding signal (Int82N [5]) was ~4.6 fold 2AP fluorescence increase.

B7: CI6a (dsDNA)
DNA 1: TGCGATAACCTAAAATTTTATTTTCAAAATTATATGGGATTTTAG
DNA 2: CTAAAATCCCATATAATTTTGAAAATAAAATTTTAGGTTATCGCT
B7: binds (Int82N [6]); binds (Int82N(R225K); 45 bp).

B8: CI6b (dsDNA)
DNA 1: TGCGATAACCTAAAATTTTCCCTTTAAAATTATATGGGATTTTAG
DNA 2: CTAAAATCCCATATAATTTTAAAGGGAAAATTTTAGGTTATCGCT
B8: binds (Int82N [6]); binds (Int82N(R225K); 45 bp).
